From US20090246142A1 (published 2009)
Square brackets hold non-standard residues; d marks the D form. pY = N[C@@H](Cc1ccc(OP(=O)(O)O)cc1)C(=O)O; Ahx = NCCCCCC(=O)O

B1: TAMRA-(Ahx)SRVGEEEHVFSFPNKQKSAEC-CONH2 (Abl substrate with the tyrosine replaced by phenylalanine) on nanoparticles (F-Abl TSACs) (peptide)
peptide: {TAMRA-Ahx}-SRVGEEEHVFSFPNKQKSAEC-NH2
modifications: not fully specified (residue 21); printed as TAMRA-(Ahx)SRVGEEEHVFSFPNKQKSAEC-CONH2; also: Cys conjugated to nanoparticle via NHS-PEO12-maleimide
notes: also called phenylalanine-Abl substrate TSACs; phenylalanine substrate TSACs
B2: TAMRA-(Ahx)EAIpYAAPFAKKKC-CONH2 (non-binding Abl substrate, phosphorylated) on nanoparticles (peptide)
peptide: {TAMRA-Ahx}-EAI[pY]AAPFAKKKC-NH2
modifications: not fully specified (residue 13); also: Cys conjugated to nanoparticle via NHS-PEO12-maleimide

How the values were obtained:
[1] = target: T1, Crk SH2 domain with an N-terminal cysteine (cys-SH2), conjugated to iron oxide nanoparticles (SH2 TSACs) (UniProt P46108 13-118, limits assumed, N-terminal cysteine added by genetic modification and conjugated to aminated nanoparticles through NHS-PEO12-maleimide); assay: DLS of nanoparticle assembly in the presence of Abl kinase
T1 construct: domain: SH2 domain; also called cysteine-SH2; Crk-SH2 TSACs

[2] = target: T1, Crk SH2 domain with an N-terminal …; assay: DLS of nanoparticle assembly

T1 sequence (P46108 13-118 limits assumed): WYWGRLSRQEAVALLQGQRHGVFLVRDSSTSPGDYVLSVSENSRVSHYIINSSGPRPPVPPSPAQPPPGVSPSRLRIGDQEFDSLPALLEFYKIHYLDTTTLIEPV

Binder	binding result [1]	binding result [2]
B1	no binding (tested: 10 µg Fe/ml (12 nM TSAC concentration))	–
B2	–	no binding (tested: 10 µg Fe/ml (12 nM TSAC concentration))
